Experimental data reported in the Human Domainome abundance scans (Beltran et al. 2025).

B1: Death-inducer obliterator 1, residues 263 to 321; numbered along this chain, Q9BTC0 (parent)
chain: GYDPNALYCICRQPHNNRFMICCDRCEEWFHGDCVGISEARGRLLERNGEDYICPNCTI

Variants of: B1
Assay: abundance fitness (aPCA) (normalised: wild type 0, dead -1); higher = more abundant; growth selection in yeast, the domain comes from the species named
Settings: Homo sapiens

Abundance fitness, by site and new letter:
C9: P -0.877 | A -0.636 | N -1.01 | M -0.606 | S -0.859 | T -0.743 | W -0.543 | Q -0.495 | Y -0.763 | F -0.659 | I -0.823 | L -0.813 | E -0.664 | R -0.534 | V -0.552 | K -1 | G -0.535
M20: V -0.077 | T 0.053 | R -0.07 | Q -0.077 | C -0.209 | A -0.343 | G -0.023 | L -0.037 | D -0.559 | E -0.403 | W -0.323 | F -0.216 | S 0.002 | I 0.045 | P -0.519
F19: Y 0.058 | W -0.016 | K -0.166 | H 0.062 | E -0.291 | I -0.028 | M -0.265 | L -0.016 | S -0.143 | R -0.145 | Q 0.048 | V -0.166 | P 0.088 | A -0.182 | N -0.341 | G -0.224
D3: S 0.174 | N 0.155 | P 0.135 | I -0.007 | Q -0.004 | R -0.049 | K 0.123 | M 0.199 | W -0.163 | T 0.023 | G -0.243 | A -0.735 | E 0.043 | F 0.025 | C -0.048 | L -0.024 | V -0.177 | H 0.111 | Y 0.002
Y2: G 0.165 | M 0.161 | F 0.351 | Q 0.161 | S 0.116 | I 0.298 | K 0.191 | N 0.269 | A -0.03 | C 0.039 | L 0.342 | H 0.156 | V -0.112 | P 0.102 | D -0.03 | E 0.347 | R 0.211
G1: P -0.104 | R -0.134 | Q -0.167 | C 0.138 | W -0.336 | N 0.109 | V 0.323 | F 0.058 | I 0.16 | S 0.199 | D 0.181 | L 0.266 | Y 0.132 | M -0.144
L7: H 0.119 | M 0.1 | I 0.106 | T -0.006 | F 0.042 | Q 0.026 | W -0.055 | Y 0.002 | C -0.062 | R 0.008 | P -0.119 | D -0.415 | K -0.012 | G 0.086 | E 0.032 | N 0.009
H15: A -0.088 | F -0.414 | M 0.138 | L 0.058 | D 0.073 | N 0.051 | K -0.121 | P -0.126 | E 0.029 | S 0.164 | G 0.017 | I -0.039 | V 0.076 | W -0.037 | Y -0.025 | C 0.018 | Q -0.148
N17: K 0.023 | Q 0.181 | W -0.317 | G 0.032 | F -0.182 | P -0.179 | T -0.07 | H 0.008 | A -0.03 | Y -0.086 | V -0.374 | C -0.117 | I -0.142 | L -0.05 | D -0.148 | S -0.111 | M -0.043
I10: E -0.143 | M 0.035 | V -0.116 | H 0.105 | W -0.169 | G -0.217 | N 0.011 | Q -0.182 | L -0.105 | A -0.084 | S 0.018 | D -0.418 | K -0.064 | Y -0.449 | T 0.017
Q13: F -0.159 | A 0.183 | Y -0.161 | N -0.061 | P -0.692 | I -0.111 | L -0.089 | V -0.068 | M 0.149 | T 0.105 | D 0.02 | G -0.233 | H -0.159 | R -0.085 | E 0.072 | K -0.054 | S -0.136
P4: R 0.076 | Y -0.258 | T -0.147 | E -0.213 | C 0.063 | D 0.354 | H -0.062 | L 0.036 | S 0.091 | F 0.264 | A -0.075 | W -0.086 | K 0.297 | V -0.183 | Q -0.043 | M 0.021 | N -0.036 | I -0.14 | G -0.122
R18: C -0.047 | E -0.023 | Q 0.042 | A -0.073 | V 0.03 | P -0.34 | W -0.16 | I -0.215 | H 0.112 | G 0.105 | K 0.009 | M 0.139 | D -0.167 | N -0.168 | F -0.24 | S 0.104 | Y 0.011
N16: D -0.049 | F -0.184 | H 0.108 | P -0.218 | K -0.019 | I -0.109 | Q 0.027 | C -0.211 | M 0.065 | L -0.064 | G 0.152 | E 0.072 | S -0.119 | T 0.058 | V -0.045 | Y -0.399 | W -0.072
N5: S -0.259 | A -0.413 | L -0.331 | R -0.211 | Q -0.112 | H -0.433 | K -0.23 | I -0.242 | W -0.793 | G -0.273 | C -0.497 | Y -0.623 | P -0.796 | T -0.319 | D 0.004 | V -0.186 | E -0.184 | F -0.189 | M -0.113
A6: F -0.198 | K -0.412 | T -0.07 | I -0.279 | R -0.419 | Y -0.806 | E -0.328 | W -0.569 | Q -0.105 | M 0.102 | L -0.33 | G -0.306 | D -0.434 | N 0.041 | S -0.511 | V -0.066 | P -0.471
P14: T 0.031 | F -0.084 | D -0.284 | V 0.07 | K 0.201 | S 0.035 | A 0.006 | M 0.004 | I -0.028 | Q 0.079 | G 0.018 | E 0.141 | W -0.496 | L 0.022 | N -0.003 | Y 0.111 | H -0.04
Y8: E 0.038 | D 0.135 | Q -0.019 | T 0.264 | S 0.125 | R 0.115 | V 0.041 | C 0.069 | H 0.03 | L 0.048 | F 0.035 | I 0.165 | P 0.059 | M 0.07 | K 0.115 | W -0.154 | N 0.192
R12: C -0.216 | I -0.48 | M -0.305 | K 0.148 | L -0.11 | H 0.019 | T -0.105 | W -0.284 | V -0.36 | G 0.184 | Q -0.186 | A -0.14 | F -0.207 | P -0.463 | Y -0.296 | D -0.101 | E -0.04
C11: E -0.622 | N -0.708 | L -0.861 | W -0.953 | M -0.71 | D -0.381 | I -0.785 | S -0.92 | Q -0.609 | R -0.861 | F -0.724 | G -1.15 | P -0.999 | T -0.747
